{"source": "paper PMC7193404", "about": "“FHF1 is a bona fide fibroblast growth factor that activates cellular signaling in FGFR-dependent manner” (Cell Communication and Signaling : CCS, 2020)", "target": "T1, extracellular region of FGFR1 fused to the Fc fragment (UniProt P11362 22-376)", "T1 construct": "extracellular region of FGFR1; also called FGFR1-Fc; source: produced in mammalian cells; as described previously [27-29]", "T1 sequence (looked up)": "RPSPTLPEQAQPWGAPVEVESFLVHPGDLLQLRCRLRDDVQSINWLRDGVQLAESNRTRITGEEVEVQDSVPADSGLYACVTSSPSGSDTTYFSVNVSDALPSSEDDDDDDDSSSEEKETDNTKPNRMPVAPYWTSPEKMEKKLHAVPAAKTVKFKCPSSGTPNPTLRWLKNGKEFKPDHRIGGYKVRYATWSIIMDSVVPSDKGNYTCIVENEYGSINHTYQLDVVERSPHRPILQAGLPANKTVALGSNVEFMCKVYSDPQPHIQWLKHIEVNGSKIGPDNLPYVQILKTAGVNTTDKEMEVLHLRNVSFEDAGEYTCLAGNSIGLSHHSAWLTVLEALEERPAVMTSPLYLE", "experiment": "SPR; Biacore 3000, 25 °C; FGFR1-Fc amine-coupled at low density (about 1000 RU) on CM4; FHF1 0.1-3.2 uM at 30 ul/min; PBS, 0.05% Tween 20, 0.2% BSA, 0.02% NaN3, pH 7.4; KD from fitted saturation binding curve (equilibrium responses); 1:1 model did not fit", "details": "both partners purified"}
{"binder": "fibroblast growth factor homologous factor 1, short isoform (FHF1b) (ligand, human, UniProt P61328-2 1-181, looked up, short isoform (FHF1b) of human FHF1 (FGF12); construct in pDEST17; Construct from F. Nakayama; also called FGF12; source: E. coli BL21 CodonPlus (DE3) RIL, purified (His-Trap, desalting column)) MESKEPQLKGIVTRLFSQQGYFLQMHPDGTIDGTKDENSDYTLFNLIPVGLRVVAIQGVKASLYVAMNGEGYLYSSDVFTPECKFKESVFENYYVIYSSTLYRQQESGRAWFLGLNKEGQIMKGNRVKKTKPSSHFVPKPIEVCMYREPSLHEIGEKQGRSRKSSGTPTMNGGKVVNQDST", "values": [{"measurement": "Kd", "result": 612, "unit": "nM"}]}
